Measurements: patent publication US20180245075, “INTEGRATED SYSTEM FOR PROGRAMMABLE DNA METHYLATION” (Trustees of Boston University, published 2018)

Columns and labels:
ZF10-1-Dam(WT) writer = ZF10-1-Dam(WT) writer (synthetic; Escherichia coli Dam, UniProt P0AEE8 SEQ:21-472); test: cell_activity; with DpnI-VP64, episomal interspersed reporter; conditions: tags: NLS, ZF10-1 six-finger array fused to Dam
Experimental: Reporter plasmid was co-transfected with Writer and Reader-Effector constructs, and single-cell GFP levels were measured with flow cytometry two days post-transfection. […] Specific constructs corresponding to the data below were: Reporter: [8XZF_14XGATC_interspersed] minimal CMV promoter; Writer: minCMV-ZF10-1-Dam (WT); and Reader-Effector: UBC-NLS-DpnI DBD-VP64.
Flow cytometry measurements were performed using an Attune NxT Flow Cytometer (Thermo Fisher Scientific) equipped with a high-throughput auto-sampler. Typically, 50,000 or 70,000 events were acquired for transient transfection or stable cell line experiments, respectively. Cells were gated by forward (FSC) and side scatter (SSC) distributions, and either iRFP or mCherry expression for transfection- or integration-positive populations, respectively. For experiments with transient transfection of synI/synR modules (FIGS. 9A-9C), geometric means of the GFP fluorescence distributions were calculated using FLOWJO (Treestar Software). GFP fold change was then calculated by normalizing mean GFP intensity to reporter-only controls, unless otherwise noted. For spreading and memory experiments (with integrated constructs), the percentage of GFP activated cells was quantified using a GFP+gate that contains ˜0.5-1% of negative control cells (FIG. 17E). […]

[1] = molecular target: ZF10-1-Dam(N132A) writer (synI) (synthetic; Escherichia coli Dam, UniProt P0AEE8 SEQ:21-472); test: cell_activity; integrated Clustered Reporter, GATC 140 bp downstream, vs mCherry-Dam; ~6-fold on transient reporter (p253); conditions: tags: NLS, ZF10-1 six-finger array fused to Dam
Experimental: Fraction methylation was measured using m6A-qPCR at a single GATC site proximal to the ZF BS array in the singly integrated Clustered Reporter (6th site, 140 bp downstream from end of ZF array). (n=3; error bars, SD). […] (n=3; error bars, SD). […] Diagonal line represents no enrichment in ZF sequence-specific methylation over “background” methylation. Dam N132A and WT are marked in red and black, respectively. (n=3; error bars, SD). […] Cells were transfected with the indicated constructs: Interspersed Reporter only, ZF-VP64 constitutively expressed from pUBC, synI^NT (Dam WT) constitutively expressed from a strong promoter (pCLPIT with no Dox induction), synI^NT (Dam WT) constitutively expressed from a weak promoter (pMinCMV), and synI^NT (Dam N132A) constitutively expressed from a weak promoter (pMinCMV). Genomic DNA (gDNA) was isolated 2 days following transfection, digested with or without DpnII, run out on an agarose gel (top), and the bands used to quantify total fraction methylated DNA (bottom). Undigested bands appearing at the top of each lane in DpnII-treated samples represent methylated (protected) gDNA, while […] gDNA fragments that are digested by DpnII appear as a smear (from ˜0.3-2 kb). Total fraction methylated gDNA is calculated as undigested gDNA in DpnII-treated samples normalized by total gDNA. […]

B1: ZF10-1 binding sequence (BS), arrayed in reporter (dsDNA)
DNA 1: CGGCGTAGCCGATGTCGCGC
DNA 2: GCGCGACATCGGCTACGCCG
activity (ZF10-1-Dam(WT) writer): > 100 fold GFP activation
activity [1]: ~10 fold m6A enrichment
